Data set [1] is described as follows: Blood concentration profile in rats (1).
Description: Blood Concentration Profile in Rats (1)
(§1) At 5 minutes, 1 hour, 6 hours, 24 hours, and 72 hours after administration, blood was collected through the jugular vein under isoflurane anesthesia successively in an amount of 0.3 mL each time, and the tacrolimus concentration in the collected blood was measured.
For data set [2] the following is noted: rats; cited from earlier work.
For data set [3] the following is noted: rat, in vivo, iv, 5 mg/kg.
Description: Blood Concentration Profile in Rats (1)
as §1
Data set [4] deals with rat collagen-induced arthritis. As to the kind of experiment: Anti-inflammatory effect for rat collagen-induced arthritis (1). Format: in vivo. The following applies: 5 mg/kg, q7 d × 4, i.v., DA rats, average score 0-5, footnote: Score 29 d. Here is the method: Anti-Inflammatory Effect for Rat Collagen-Induced Arthritis (1)
0.3 mg of bovine articular cartilage-derived type II collagen (immunological grade; Collagen Research Center, Ltd.) was intradermally administered on the dorsal side of nine-week old female DA rats (Japan SLC, Inc.), and thereby collagen-induced arthritis was induced in the rats. […] As a control, a non-administered group was provided. Determination of arthritis was made by scoring based on visual inspection.
From the time point after the sensitization with bovine articular cartilage-derived type II collagen, the progress of inflammation in the right hind limb and the left hind limb was monitored. It was determined that the onset of collagen-induced arthritis occurred when reddening was recognized in the toes of the right hind limb or the left hind limb. The extent of arthritis was evaluated in six stages according to the following scores from 0 to 5. […]

Like-named read-outs stand apart in the source and are kept apart here. Marks after values point to notes of the source that are not given here.

For the compound `C=CC[C@@H]1/C=C(\C)C[C@H](C)C[C@H](OC)[C@H]2O[C@@](O)(C(=O)C(=O)N3CCCC[C@H]3C(=O)O[C@H](/C(C)=C/[C@@H]3CC[C@@H](O)[C@H](OC)C3)[C@H](C)[C@@H](O)CC1=O)[C@H](C)C[C@@H]2OC` [Tacrolimus, tacrolimus], the time to peak (Tmax) – broadly, the time at which the peak concentration occurs – in data set [1] (female SD rats, i.v. once 5 mg/kg, tacrolimus in blood) is 5 min. The compound also yielded a concentration at 72 h in data set [1] (female, SD, rat, whole blood, iv, 5 mg/kg) of 0.273 ng/mL. Besides, the “signs caused by intravenous administration” value in data set [2] is reported as “slight respiratory distress, a decrease in locomotor activity, a prone position, stereotyped behavior”.
Regarding “Tacrolimus-Bonded Polyethylene Glycol-αβ-Polyaspartic Acid Block Copolymer [Comparative Example 1]”, in data set [3], the AUCinf. was 1050 ng·h/mL; the Cmax (in general, the maximum level reached in the sampled fluid or tissue) amounted to 280 ng/mL; the MRTinf. is 11.6 h; the “MRTinf. compared to tacrolimus” value is on record as “prolongation”. Besides, in data set [3], the Tmax was found to be 5 min, the T½ stood at 9.57 h and the “blood concentration half-life compared to tacrolimus” value is recorded as “prolongation”. The “Arthritis score (29 d)” value in data set [4] is given as 2.6*.

Source of the values: patent US10945997B2, “Polymer derivative of macrolide immunosuppressant” (Nippon Kayaku Kabushiki Kaisha, priority 2016, dated 2021).
